# From the supplement of paper PMC11865577
# Assays:
# Experiment in all cases: pull-down binding Z-score (relative to library population); higher = stronger binding
# Conditions in all cases: RNA library: Library-2
# [1] = tested on: TO-3-N3-2 (biotin conjugate)
# In short: (§1)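 Streptavidin beads with 100 pmol of biotin-conjugated small molecule were incubated for 60 min at 25 °C with 1 μg of heat-folded Cy5- or Cy3-end-labelled RNA library in phosphate/NaCl/KCl buffer. Bound RNA was eluted in hot SDS after three washes and hybridised to a DNA barcode microarray at 55.5 °C for 20 h. Each binding score is a library-referenced Z-score, computed after beads-only subtraction and a trimmed mean of barcoded replicate probes.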
# [2] = tested on: TO-N3-2 (biotin conjugate)
# In short: as §1
# [3] = tested on: TO-3-N3 (biotin conjugate)
# In short: as §1
# [4] = tested on: TO-N3 (biotin conjugate)
# In short: as §1
Sequence,pull-down binding Z-score [1],pull-down binding Z-score [2],pull-down binding Z-score [3],pull-down binding Z-score [4]
UCGCUUGCAAGUUGGAUUCAGAAUGAGUUUAACAAGGCAUGCGA [IAV_invivo_PA_3_Motif_18+IAV_invivo_PA_3_Motif_18],-0.227,-0.838,-0.53,-0.603
UCGUCAAUAGGGCGA [IAV_invivo_PB2_1_Motif_18+IAV_invivo_PB2_1_Motif_18],-0.184,-0.56,-0.228,-0.554
UCGUGUUAAAAAUCUGAAUUCUUCUAGAGUUCCUGAUCUUCUGGUCUAAACGAACUAAAUAUUAUAUUAGUUUUUCUGUUUGGAACUUUAAUUUUAGCCAUGG,-0.138,-0.59,-0.635,-0.609
UCUAAAUGAAACUCUUGUUACAAUGCCACUUGGCUAUGUAACACAUGGCUUAAAUUUGGA,-0.364,-1.03,-1.01,-1.16
UCUAACUUUAGAGUCCAACCAACAGAAUCUAUUGUUAGA,-0.138,-0.918,0.171,-0.148
UCUAUACAGAACUGGA [SHAPE_invivo_SARS-CoV-2_Motif_242],-0.0262,-0.496,1.18,0.79
UCUAUUAAAAUAUAAUGA [DMSMaPseq_invitro_SARS-CoV-2_Motif_395],-0.157,-0.693,-0.0176,-0.185
UCUCCUCAUUUACUGUGAAUGUGAGGGGA [IAV_invivo_PB2_1_Motif_31+IAV_invivo_PB2_1_Motif_31],-0.219,-0.905,-0.428,-0.72
UCUCGUUCACUGGGGA [IAV_invivo_PA_3_Motif_5+IAV_invivo_PA_3_Motif_5],0.0349,-0.216,0.366,0.198
UCUCUAAUGAGA,-0.652,-1.53,-0.823,-1.38
UCUCUAUGACAAACUUGUUUCAAGCUUUUUGGAAAUGAAGAGUGAAAAGCAAGUUGAACAAAAGAUCGCUGAGA [SHAPE_invitro_SARS-CoV-2_Motif_69],-0.507,0.388,-0.0465,-0.0892
UCUCUCUCAUUUUGUUAACUUAGACAACCUGAGAGCUAAUAACACUAAAGGUUCAUUGCCUAUUAAUGUUAUAGUUUUUGAUGGUAAAUCAAAAUGUGAAGA [DMSMaPseq_invitro_SARS-CoV-2_Motif_146],-0.388,-0.699,-0.765,-0.723
UCUGAAGAAGUAGUGGAAAAUCCUACCAUACAGA [DMSMaPseq_invitro_SARS-CoV-2_Motif_122],-0.226,0.514,-0.124,0.657
UCUGACAGUCCAUGUGAGUCUCAUGGAAAACAAGUAGUGUCAGA [SHAPE_invivo_SARS-CoV-2_Motif_364],-0.0689,-0.73,-0.582,-0.868
UCUGCACUGUUAGCGGGUACAAUCACUUCUGGUUGGACCUUUGGUGCAGG,-0.38,-1.07,-0.66,-0.815
UCUGCCUAUACAGUUGAACUCGGUACAGAAGUAAAUGAGUUCGCCUGUGUUGUGGCAGA [SHAPE_invivo_SARS-CoV-2_Motif_57],-0.334,1.36,-0.71,-0.415

Sequence,pull-down binding Z-score [1],pull-down binding Z-score [2],pull-down binding Z-score [3],pull-down binding Z-score [4]
UCUGCUCGCAUAGUGUAUACAGCUUGCUCUCAUGCCGCUGUUGAUGCACUAUGUGAGAAGGCAUUAAAAUAUUUGCCUAUAGA,-0.447,-0.0527,-0.598,-0.615
UCUGGAGUAAAAGACUGUGUUGUAUUACACAGUUACUUCACUUCAGA,-0.0465,-0.98,-0.0665,-0.481
UCUGUACCGUCUGCGGUAUGUGGA [DMSMaPseq_invitro_SARS-CoV-2_Motif_240],-0.475,0.111,-0.562,-0.694
UCUGUUUGGAACUUUAAUUUUAGCCAUGGCAGA,-0.0381,0.0796,-0.689,-0.72
UCUUAAGAGAGGUGAUAAAAGUGUAUAUUACACUAGUAAUCCUACCACAUUCCACCUAGAUGGUGAAGUUAUCACCUUUGACAAUCUUAAGA,-0.0579,-0.559,0.836,0.528
UCUUCAGGUUGGACAGCUGGUGCUGCAGCUUAUUAUGUGGGUUAUCUUCAACCUAGGA [DMSMaPseq_invitro_SARS-CoV-2_Multi_66_ComplexLevel_1],-0.178,0.0317,-0.145,0.0485
UCUUGCCGAAUACCAUAAUGAAUCUGGCUUGA [SHAPE_invivo_SARS-CoV-2_Motif_27],-0.354,0.0939,-0.617,-0.631
UCUUUAAGGAAGGAAGUUCUGUUGAAUUAAAACACUUCUUCUUUGCUCAGGA [DMSMaPseq_invitro_SARS-CoV-2_Motif_265],-0.179,-0.953,-0.904,-1.23
UCUUUAUUUGACAUGAGUAAAUUUCCCCUUAAAUUAAGGGGUACUGCUGUUAUGUCUUUAAAAGA [SHAPE_invitro_SARS-CoV-2_Motif_387],0.0957,-0.575,-0.896,-0.894
UCUUUCAUGGGA [DMSMaPseq_invitro_SARS-CoV-2_Motif_300],0.0379,-0.26,0.66,0.363
UGAACCACAAAUCA [SHAPE_invitro_SARS-CoV-2_Motif_451],-0.565,-0.906,-0.745,-1.04
UGAAGUAUUUUGUGAAAAUAGGACCUGAGCGCACCUGUUGUCUAUGUGAUAGACGUGCCACAUGCUUUUCCACUGCUUCA [SHAPE_invitro_SARS-CoV-2_Motif_342],-0.335,0.0857,-0.573,-0.477
UGAAUUAGACUCAUUCA [DMSMaPseq_invitro_SARS-CoV-2_Motif_447],-0.45,-0.825,-0.55,-0.643
UGACAUGACUCUUGAGGAAAUGUCA [IAV_invivo_NS1_NEP_8_Motif_7+IAV_invivo_NS1_NEP_8_Motif_7],-0.773,-1.21,-0.475,-0.87
UGACAUUACACCAUGUUCUUUUGGUGGUGUCA,-0.423,-1.47,-0.87,-1.29
UGACCAGUCUUCUUACAUCGUUGAUAGUGUUACAGUGAAGAAUGGUUCCAUCCAUCUUUACUUUGAUAAAGCUGGUCA,-0.33,-0.863,-0.506,-0.675
